Our source for the activity (% of control luciferase) and activity (Luc/GUS ratio) values is patent US6410329.

Test in all cases: cell_activity
Data set [1] has as its system VirD1 (Agrobacterium tumefaciens). The note with it: VirD1 alone.
The target in data set [2] is T1, VirD1-VirD2 translational fusion (p35SD1D2) (Agrobacterium tumefaciens) (UniProt P06668).
T1 sequence: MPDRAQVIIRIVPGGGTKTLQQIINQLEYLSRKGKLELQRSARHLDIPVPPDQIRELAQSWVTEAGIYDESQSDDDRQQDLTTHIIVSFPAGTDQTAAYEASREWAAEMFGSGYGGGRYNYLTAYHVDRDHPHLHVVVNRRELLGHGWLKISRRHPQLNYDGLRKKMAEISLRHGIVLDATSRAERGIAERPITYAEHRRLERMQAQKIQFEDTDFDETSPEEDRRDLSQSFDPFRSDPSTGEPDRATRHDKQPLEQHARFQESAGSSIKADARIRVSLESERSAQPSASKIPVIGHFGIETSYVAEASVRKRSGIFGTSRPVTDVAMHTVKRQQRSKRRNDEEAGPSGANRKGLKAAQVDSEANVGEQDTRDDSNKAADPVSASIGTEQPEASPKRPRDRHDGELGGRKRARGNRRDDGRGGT

Data set [3] concerns the target T2, VirD2-VirD1 translational fusion (p35SD2D1) (Agrobacterium tumefaciens) (UniProt P06668).
T2 sequence: T1 sequence

Setting [4] is: maize, pwBarRBLuc geminivirus vector.

Turning to “ATCCGGCAGGATATATACCGTTGTAATTCTGCA (double strand) [T-DNA right border reversed, pRB(-)Luc]”, in data set [1] (tobacco), the activity (% of control luciferase) came to 95.
“ATCCGGCAGGATATATACCGTTGTAATTCTGCA (double strand) [right border in WDV replicon pwi35SRBLuc]”: in data set [1] (maize, target alone 15.0), the activity (Luc/GUS ratio) is 8.1. Moreover, the activity (% of control luciferase) worked out at 6 in data set [2] (setting [4]) and 3.6 in data set [3] (setting [4]).
Take “ATCCGGCAGGATATATACCGTTGTAATTCTGCA (double strand) [T-DNA right border duplex, pRB(+)Luc]”: the activity (% of control luciferase) worked out at 105 in data set [1] (maize); 72 in data set [1] (tobacco); 2.4 in data set [2] (maize, 1 ug + 4 ug); 5.4 in data set [2] (tobacco, 0.5 ug + 2 ug); 2.6 in data set [3] (maize, 1 ug + 4 ug); 5 in data set [3] (tobacco, 0.5 ug + 2 ug).
